Patent US20260109763A1 (DENALI THERAPEUTICS, published 2026)
Values belong to the binder of their own block, whether it stands above or below them.

Columns and labels:
human PILRA G78 on cells [1] = target: T1, human PILRA G78 on cells (human, UniProt Q9UKJ1 20-303); assay: flow cytometry on HEK293 cells expressing hPILRA G78
T1 construct: wild-type iMicroglia are R78/G78 heterozygous (said in the assay field); also called hPILRA; hPILRA G78
Target sequence in this assay (Q9UKJ1 20-303 R78G limits assumed): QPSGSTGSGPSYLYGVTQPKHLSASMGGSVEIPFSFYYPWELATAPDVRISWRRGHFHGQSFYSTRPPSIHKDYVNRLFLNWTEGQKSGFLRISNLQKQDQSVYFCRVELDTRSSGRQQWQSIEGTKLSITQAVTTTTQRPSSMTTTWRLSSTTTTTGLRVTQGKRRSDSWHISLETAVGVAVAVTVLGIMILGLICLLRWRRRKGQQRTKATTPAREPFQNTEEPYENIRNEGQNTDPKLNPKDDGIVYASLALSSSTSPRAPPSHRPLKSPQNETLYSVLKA

[2] = target: T2, human PILRA G78 extracellular domain (recombinant hPILRA ECD) (human, UniProt Q9UKJ1 20-197); assay: SPR, Biacore 8K; hPILRA ECD; antibody with wild-type Fc
T2 construct: also called hPILRA G78
Protocol: (§1) Antibodies were captured on Biacore™ Series S CM5 sensor chips immobilized with mouse anti-human Fab (human Fab capture kit from GE Healthcare) followed by injections of serial 3-fold dilutions of recombinant ECD reagents at a flow rate of 30 μL/min. Each sample was analyzed using a 3-minute association followed by a 10-minute dissociation. After each injection, the sensor chip was regenerated using a 5 0 mM glycine pH2.0 regeneration buffer. A 1:1 Languir model of simultaneous fitting of kₒₙ and koff was used for kinetics analysis.
Characterization for binding affinities of the humanized antibodies to hPILRA ECD were measured by SPR using a Biacore 8K instrument (Table 7).

human PILRA G78 on cells [3] = target: T1, human PILRA G78 on cells; assay: flow cytometry on PILRA G78 expressing CHO-K1 cells (FIG. 1H)
Target sequence in this assay (Q9UKJ1 20-303 R78G limits assumed): as above
Protocol: (§2) PILRA G78 or R78 overexpressing HEK293 cells were stained with NucBlue Live cell stain for 30 mins at RT. […] Cell lines were run in duplicate to account for intra-variability, for a total of N=3. The same protocol was used for CHO-K1 cells expressing hPILRA G78.

human PILRA G78 on cells [4] = target: T1, human PILRA G78 on cells; assay: cell-based or functional assay
Target sequence in this assay (Q9UKJ1 20-303 R78G limits assumed): as above

human PILRA G78 on cells [5] = target: T1, human PILRA G78 on cells; assay: flow cytometry on PILRA G78 expressing HEK293 cells (FIG. 1D); HEK293 cells expressing PILRA G78
Protocol: as §2

human PILRA R78 on cells [6] = target: T3, human PILRA R78 on cells (human, UniProt Q9UKJ1 20-303); assay: cell-based or functional assay
[7] = target: T4, human PILRA R78 extracellular domain (recombinant) (human, UniProt Q9UKJ1 20-197); assay: SPR
T4 construct: also called hPILRA R78
Target sequence in this assay (Q9UKJ1 20-197 limits assumed): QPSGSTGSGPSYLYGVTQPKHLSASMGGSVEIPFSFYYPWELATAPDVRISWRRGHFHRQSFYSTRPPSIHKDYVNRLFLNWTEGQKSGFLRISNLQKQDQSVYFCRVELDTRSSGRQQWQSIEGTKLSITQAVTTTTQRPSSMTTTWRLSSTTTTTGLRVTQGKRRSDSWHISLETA

[8] = target: T2, human PILRA G78 extracellular domain …; assay: SPR
[9] = target: T5, human PILRB extracellular domain (recombinant) (human, UniProt Q9UKJ0 20-191); assay: SPR
T5 construct: also called hPILRB

[10] = target: T6, cynomolgus monkey PILRA extracellular domain (recombinant) (cynomolgus monkey); assay: SPR
T6 construct: also called cynoPILRA; Cyno PILRA

human PILRA R78 on cells [11] = target: T3, human PILRA R78 on cells; assay: flow cytometry on PILRA R78 expressing HEK293 cells (FIG. 1F); HEK293 cells expressing PILRA R78
Protocol: as §2

human PILRA G78 on cells [12] = target: T1, human PILRA G78 on cells; assay: cell binding, HEK293 cells expressing hPILRA G78; antibody with modified Fc
Target sequence in this assay (Q9UKJ1 20-303 R78G limits assumed): as the sequence (Q9UKJ1 20-303 R78G limits assumed) above

[13] = target: T4, human PILRA R78 extracellular domain …; assay: SPR; remark: listed apart in the source
Target sequence in this assay (Q9UKJ1 20-197 limits assumed): as the sequence (Q9UKJ1 20-197 limits assumed) above

[14] = target: T2, human PILRA G78 extracellular domain …; assay: SPR; remark: listed apart in the source
[15] = target: T5, human PILRB extracellular domain …; assay: SPR; remark: listed apart in the source
[16] = target: T6, cynomolgus monkey PILRA extracellular …; assay: SPR; remark: listed apart in the source
human PILRA R78 on cells [17] = target: T3, human PILRA R78 on cells; assay: cell binding, HEK293 cells expressing hPILRA R78; antibody with modified Fc
human PILRB on cells = target: T7, human PILRB on cells (human, UniProt Q9UKJ0 20-227); assay: flow cytometry, CHO cells expressing hPILRB, MFI as fold over isotype control
T7 construct: Expressed on CHO-K1 cells, or together with DAP12 on HEK293 cells (hPILRB-DAP12 OE HEK293); also called hPILRB; hPILRB-DAP12

[18] = target: T8, cynomolgus monkey PILRA on cells (cynomolgus monkey); assay: flow cytometry, CHO cells expressing cynoPILRA, MFI as fold over isotype control
T8 construct: Expressed on CHO-K1 cells; also called cynoPILRA; cyno PILRA

[19] = target: T5, human PILRB extracellular domain …; assay: SPR, Biacore 8K, recombinant ECD
Protocol: as §1

[20] = target: T6, cynomolgus monkey PILRA extracellular …; assay: SPR, Biacore 8K, recombinant ECD
Protocol: as §1

human PILRA G78 on cells [21] = target: T1, human PILRA G78 on cells; assay: flow cytometry on HEK293 PILRA G78 cells without sialidase treatment
Protocol: (§3) PILRA 78G or PILRA 78R expressing HEK293 cells were treated with SialEXO (Genovis). […] It is a combination of two sialidases acting on α2-3, α2-6 and α2-8 linkages. […] Cells were then washed twice and incubated and stained with NucBlue Live Stain for 30 mins at RT.

human PILRA G78 on cells [22] = target: T1, human PILRA G78 on cells; assay: flow cytometry on HEK293 cells expressing hPILRA G78; remark: listed apart in the source
Target sequence in this assay (Q9UKJ1 20-303 R78G limits assumed): as the sequence (Q9UKJ1 20-303 R78G limits assumed) above
Protocol: Parental HEK293 cells were labeled with NucBlue Live ReadyProbes Reagent for 30 mins. […] Antibody binding to the cells was detected by FACS and median fluorescence intensity (MFI) was derived from data analysis performed with the FLOJO software (FIGS. 1A-1C).

[23] = target: T4, human PILRA R78 extracellular domain …; assay: SPR, Biacore 8K; antibody captured via anti-human Fab, recombinant ECD injected; 1:1 fit;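 also: CM5 sensor chip, ECD analyte in threefold dilution series at 30 µL/min, 3 min association and 10 min dissociation, kon and koff fitted simultaneously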
[24] = target: T2, human PILRA G78 extracellular domain …; assay: as above
[25] = target: T5, human PILRB extracellular domain …; assay: as above
human PILRA R78 on cells [26] = target: T3, human PILRA R78 on cells; assay: flow cytometry on HEK293 PILRA R78 cells with sialidase treatment; with sialidase treatment
Protocol: as §3
(§4) Following the same protocol, sialidase treatment was also performed on HEK cells expressing PILRA R78.

human PILRA R78 on cells [27] = target: T3, human PILRA R78 on cells; assay: flow cytometry on HEK293 PILRA R78 cells without sialidase treatment; without sialidase treatment
Protocol: as §3, §4

human PILRA G78 on cells [28] = target: T1, human PILRA G78 on cells; assay: flow cytometry on HEK293 PILRA G78 cells with sialidase treatment
Protocol: as §3

[29] = target: T6, cynomolgus monkey PILRA extracellular …; assay: SPR, Biacore 8K; antibody captured via anti-human Fab, recombinant ECD injected; 1:1 fit;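 also: CM5 sensor chip, ECD analyte in threefold dilution series at 30 µL/min, 3 min association and 10 min dissociation, kon and koff fitted simultaneously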

T2 sequence (Q9UKJ1 20-197 R78G limits assumed): as the sequence (Q9UKJ1 20-197 limits assumed) above, with R59G counted along it
T5 sequence (Q9UKJ0 20-191 limits assumed): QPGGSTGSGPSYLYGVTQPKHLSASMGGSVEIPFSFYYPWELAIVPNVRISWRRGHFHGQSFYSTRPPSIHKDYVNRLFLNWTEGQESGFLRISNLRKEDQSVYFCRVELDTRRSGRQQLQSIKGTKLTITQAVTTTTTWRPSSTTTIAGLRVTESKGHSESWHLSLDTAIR
T3 sequence (Q9UKJ1 20-303 limits assumed): as the sequence (Q9UKJ1 20-303 R78G limits assumed) above, with G59R counted along it
T6 sequence (chain, as listed by the source limits assumed): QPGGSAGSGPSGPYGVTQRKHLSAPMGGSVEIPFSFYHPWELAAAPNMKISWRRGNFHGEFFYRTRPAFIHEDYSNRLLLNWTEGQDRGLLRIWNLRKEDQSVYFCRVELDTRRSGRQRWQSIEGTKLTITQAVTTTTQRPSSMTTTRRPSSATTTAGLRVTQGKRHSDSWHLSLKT
T8 sequence (chain, as listed by the source limits assumed): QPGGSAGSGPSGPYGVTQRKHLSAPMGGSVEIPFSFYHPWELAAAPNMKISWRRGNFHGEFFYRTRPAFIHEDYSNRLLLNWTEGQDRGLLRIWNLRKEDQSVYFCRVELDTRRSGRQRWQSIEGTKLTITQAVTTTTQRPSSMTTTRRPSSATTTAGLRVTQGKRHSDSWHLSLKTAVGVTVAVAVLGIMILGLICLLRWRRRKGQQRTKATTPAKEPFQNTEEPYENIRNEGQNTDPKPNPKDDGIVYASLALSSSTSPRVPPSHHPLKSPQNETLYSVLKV
T7 sequence (Q9UKJ0 20-227 limits assumed): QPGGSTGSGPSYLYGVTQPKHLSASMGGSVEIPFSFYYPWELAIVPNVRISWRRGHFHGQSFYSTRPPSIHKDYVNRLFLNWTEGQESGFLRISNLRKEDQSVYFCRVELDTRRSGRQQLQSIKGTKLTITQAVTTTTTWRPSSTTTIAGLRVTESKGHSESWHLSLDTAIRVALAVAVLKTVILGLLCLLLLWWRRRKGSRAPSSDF

EC50 (human PILRA G78 on cells [1]): 12 nM | Kd [2]: 1.58 nM | EC50 (human PILRA G78 on cells [3]): 10.8 nM | pSTAT3 S727 induction, EC50 (nM) (human PILRA G78 on cells [4]): 16 nM | pSTAT3 S727 induction, Fold Over Background (human PILRA G78 on cells [4]): 31.6 fold | pSTAT3 Y705 induction, EC50 (nM) (human PILRA G78 on cells [4]): 11.7 nM | pSTAT3 Y705 induction, Fold Over Background (human PILRA G78 on cells [4]): 31.3 fold | EC50 (human PILRA G78 on cells [5]): 12 nM | pSTAT3 S727 induction, EC50 (nM) (human PILRA R78 on cells [6]): 7.41 nM | pSTAT3 S727 induction, Fold Over Background (human PILRA R78 on cells [6]): 21.4 fold | pSTAT3 Y705 induction, EC50 (nM) (human PILRA R78 on cells [6]): 4.53 nM | pSTAT3 Y705 induction, Fold Over Background (human PILRA R78 on cells [6]): 34.6 fold | Kd [7]: 17 nM | Kd [8]: 1.2 nM | Kd [9]: 263 nM | Kd [10]: 1.8 nM | EC50 (human PILRA R78 on cells [11]): 2.7 nM
B1: Anti-PILRA antibody clone 12 (antibody, V domains shown)
VH: EVQLVQSGAEVKKPGASVKVSCKASGYTFTEYYMYWVRQAPGQGLELIGRIDPEDGGTDYIEKFKNRVTITADTSTSTAYLELSSLRSEDTAVYYCATTIRGTVFAFWGQGTLVTVSS
VL: DIQMTQSPSSLSASVGDRVTITCRASEDIFNGLAWYQQKPGKSPKLLIYNAKTLHTGVPSRFSGSGSGSDYTLTISSLQPEDFATYFCQQYYDYPLTFGQGTKVEIK
notes: Humanized; also called Ab.12

EC50 (human PILRA G78 on cells [12]): 13 to 14 nM | Kd [13]: 11 nM | Kd [14]: 0.3 to 0.7 nM | Kd [15]: 35 to 53 nM | Kd [16]: 0.2 to 0.3 nM | EC50 (human PILRA R78 on cells [17]): 2 to 4 nM
B2: Anti-PILRA antibody clone 38 (antibody, V domains shown)
VH: EVQLVQSGAEVKKPGASVKVSCKASGYTFTEYYMYWVRQAPGQGLELIGRIDPEDGGTDYVEKFKNRVTATADTSTSTAYLELSSLRSEDTAVYYCASTIRGTVFVYWGQGTLVTVSS
VL: DIQMTQSPSSLSASVGDRVTITCRPSEDIYNGLAWYQQKPGKAPKLLIYNANSLHTGVPSRFSGSGSGTDYTLTISSLQPEDFATYFCQQYYDYPLTFGQGTKVEIK
notes: Humanized

EC50 (human PILRA G78 on cells [12]): 7 to 8 nM | Kd [13]: 6.2 to 6.3 nM | Kd [14]: 0.2 to 0.4 nM | Kd [15]: 38 to 56 nM | Kd [16]: 0.4 nM | EC50 (human PILRA R78 on cells [17]): 1 to 2 nM
B3: Anti-PILRA antibody clone 39 (antibody, V domains shown)
VH: EVQLVQSGAEVKKPGASVKVSCKASGYTFTEYYMYWVRQAPGQGLELIGRIDPEDGGTDYIEKFKNRVTLTADTSTSTAYLELSSLRSEDTAVYYCATTIRGTVFAFWGQGTLVTVSS
VL: DIQMTQSPSSLSASVGDRVTITCRASEDIFNGLAWYQQKPGKSPKLLIYNAKTLHTGVPSRFSGSGSGSDYTLTISSLQPEDFATYFCQQYYDYPLTFGQGTKVEIK
notes: Humanized

binding result (human PILRB on cells): no binding (tested: 100 nM) | binding result [18]: no binding (tested: 100 nM) | binding result [19]: no binding | binding result [20]: no binding
B4: Reference Antibody #4 (antibody, human IgG1, kappa, L234A L235A, V domains shown)
VH: QVTLKESGPGILQPSQTLSLTCSFSGFSLTTFGMGVGWIRQPSGKGLEWLAHIWWDDDKYYNPALKSRLTISKDISKNQVFLKIANVDTADTATYYCARIEDYGNPFDYWGQGTTLTVSS
VL: DIQMNQSPSSLSASLGDTITITCHASQNIHVWLSWYQQKPGNIPKLLIYKASNLHTGVPSRFSGSGSGTGFTLTISSLQPEDIATYYCQQGQSYPLTFGAGTKLELKR

binding result (human PILRB on cells): no binding (tested: 100 nM) | binding result [18]: no binding (tested: 100 nM) | binding result [19]: no binding | binding result [20]: no binding
B5: Reference Antibody #2 (antibody, human IgG1, kappa, L234A L235A, V domains shown)
VH: QVILKESGPGILQSSQTLSLTCSFSGFSLSTFGMGVGWIRQPSGKGLESLAHIWWDDDKFYNPALKSRLTISKDTSKSQVFLKIANVDTADIATYYCTRIEDYGSYFAYWGQGTTLTVSS
VL: DVQMNQSPSSLSASLGDPITITCHASQNIHVWLNWYQQRPGNIPRLLIYKASNLHTGVPSRFSGSGSGTGFTLTISSLQPEDIATYYCQQGQSYPYTFGGGTKLEIKR

EC50 (human PILRA G78 on cells [21]): 13 nM | EC50 (human PILRA G78 on cells [22]): 9.3 nM | EC50 (human PILRA G78 on cells [3]): 7.6 nM | Kd [23]: 9.6 nM | Kd [24]: 0.72 nM | Kd [25]: 90 nM | pSTAT3 S727 induction, EC50 (nM) (human PILRA G78 on cells [4]): 16 nM | pSTAT3 Y705 induction, EC50 (nM) (human PILRA G78 on cells [4]): 12.1 nM | pSTAT3 S727 induction, EC50 (nM) (human PILRA R78 on cells [6]): 7.13 nM | pSTAT3 Y705 induction, EC50 (nM) (human PILRA R78 on cells [6]): 3.18 nM | EC50 (human PILRA R78 on cells [26]): 0.3 nM | EC50 (human PILRA R78 on cells [27]): 0.7 nM | EC50 (human PILRA R78 on cells [11]): 2 nM | EC50 (human PILRA G78 on cells [28]): 4.8 nM
B6: Anti-PILRA antibody clone 6 (antibody, V domains shown)
VH: EVQLQQSGPELQRPGASVKLSCKASGYTFTEYYMYWVKQRPKQGLELIGRIDPEDGGTDYIEKFKNKATLTADTSSNTAYMQLSSLTSEDTATYFCATTIRGTVFAFWGQGTLVTVSS
VL: DIQMTQSPASLSASLGETVTIECRASEDIFNGLAWYQQKPGKSPHLLIYNAKTLHTGVPSRFSGSGSGSQYSLKINSLQSEDVASYFCQQYYDYPLTFGSGTKLEIK
notes: the printed lines of the VL are out of order there

EC50 (human PILRA G78 on cells [21]): 9.5 nM | EC50 (human PILRA G78 on cells [22]): 13 nM | EC50 (human PILRA G78 on cells [3]): 10 nM | Kd [23]: 17 nM | Kd [24]: 1.2 nM | Kd [25]: 250 nM | Kd [29]: 4.8 nM | pSTAT3 S727 induction, EC50 (nM) (human PILRA G78 on cells [4]): 18.6 nM | pSTAT3 S727 induction, Fold Over Background (human PILRA G78 on cells [4]): 26.6 fold | pSTAT3 Y705 induction, EC50 (nM) (human PILRA G78 on cells [4]): 13 nM | pSTAT3 Y705 induction, Fold Over Background (human PILRA G78 on cells [4]): 32.5 fold | EC50 (human PILRA G78 on cells [5]): 12.9 nM | pSTAT3 S727 induction, EC50 (nM) (human PILRA R78 on cells [6]): 10.7 nM | pSTAT3 S727 induction, Fold Over Background (human PILRA R78 on cells [6]): 28.9 fold | pSTAT3 Y705 induction, EC50 (nM) (human PILRA R78 on cells [6]): 5.38 nM | pSTAT3 Y705 induction, Fold Over Background (human PILRA R78 on cells [6]): 38.3 fold | EC50 (human PILRA R78 on cells [26]): 0.3 nM | EC50 (human PILRA R78 on cells [27]): 0.7 nM | EC50 (human PILRA R78 on cells [11]): 2.5 nM | EC50 (human PILRA G78 on cells [28]): 3.2 nM
B7: Anti-PILRA antibody clone 7 (antibody, V domains shown)
VH: EVQLQQSGPELQRPGASVKLSCKASGYTFTEYYMYWVKQRPKQGLELMGRIDPEDGGTDYVEKFKNKATLTADTSSNTAYMQLSSLTSEDTATYFCASTIRGTVFVYWGQGTLVTVSS
VL: DIQMTQSPASLSASLGETVTIECRPSEDIYNGLAWYQQKPGESPQLLIYNANSLHTGVPSRFSGSGSGTQYSLKINSLQSEDVASYFCQQYYDYPLTFGSGTKLEIK
